Source: US20090048164A1
No end group written: not given here. FLAG = FLAG tag

What follows are binders tested against Recombinant human Bcl-xL with a 25 amino acid truncation of its C-terminus (human) (UniProt Q07817) (assay: competition phage ELISA).
Recombinant human Bcl-xL with a 25 amino acid truncation of its C-terminus (human), sequence (Q07817 1-208): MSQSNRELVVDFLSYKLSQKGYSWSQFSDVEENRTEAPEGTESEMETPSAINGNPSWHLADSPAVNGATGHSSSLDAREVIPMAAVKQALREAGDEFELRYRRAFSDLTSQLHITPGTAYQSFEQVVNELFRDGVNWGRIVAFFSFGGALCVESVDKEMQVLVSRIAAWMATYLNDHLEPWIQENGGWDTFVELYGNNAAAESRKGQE
With QEDAIRNIARHLAQVGDSMDRSIPPG [Bid BH3 I4A, phage-displayed] the Fold/wt was 3 fold and the IC50 was 31 nM.
In the case of NLWAAQRYGRELRAMSDEFVDSFKKG [Bad BH3 R14A, phage-displayed], the Fold/wt is reported as 2 fold and the IC50 is reported as 4 nM.
NLWEAQRYGRELRRMSDEFVDSFKKG [Bad BH3 A4E, phage-displayed] was tested, and the Fold/wt was 2 fold and the IC50 was 4 nM.
In the case of QEDIARNIARHLAQVGDSMDRSIPPG [Bid BH3 I5A, phage-displayed], the Fold/wt is reported as 2 fold and the IC50 is reported as 21 nM.
NLWAAQAYGRELRRMSDEFVDSFKKG [Bad BH3 R7A, phage-displayed] was tested, and the Fold/wt was 2 fold and the IC50 was 4 nM.
With NLAAAQRYGRELRRMSDEFVDSFKKG [Bad BH3 W3A, phage-displayed] the Fold/wt was 1 fold and the IC50 was 3 nM.
NLWAAARYGRELRRMSDEFVDSFKKG [Bad BH3 Q6A, phage-displayed] showed a Fold/wt of 2 fold and an IC50 of 3 nM.
NLWAAQRYGRELRRMSDEFVDAFKKG [Bad BH3 S22A, phage-displayed] was tested, and the Fold/wt was 2 fold and the IC50 was 4 nM.
For NLWAAQRAGRELRRMSDEFVDSFKKG [Bad BH3 Y8A, phage-displayed], the Fold/wt was 3 fold and the IC50 was 7 nM.
Work on NLWAAQRYGRELRRMSDAFVDSFKKG [Bad BH3 E18A, phage-displayed] yielded a Fold/wt of 2 fold and an IC50 of 4 nM.
Binder NLWAAQRYGRELRRMSDEFVDSFKAG [Bad BH3 K25A, phage-displayed] has a Fold/wt of 2 fold and an IC50 of 4 nM.
NLWAAQRYGRELRRMSDEFVASFKKG [Bad BH3 D21A, phage-displayed] was tested, and the Fold/wt was 1 fold and the IC50 was 2 nM.
With NLWAAQRYGAELRRMSDEFVDSFKKG [Bad BH3 R10A, phage-displayed] the Fold/wt was 1 fold and the IC50 was 3 nM.
NLWAAQRYGRELRRASDEFVDSFKKG [Bad BH3 M15A, phage-displayed] showed a Fold/wt of 3 fold and an IC50 of 6 nM.
In the case of NLWAAQRYGRELRRMSDEFADSFKKG [Bad BH3 V20A, phage-displayed], the Fold/wt is reported as 1 fold and the IC50 is reported as 3 nM.
With NLWAAQRYGRELRRMSDEFVDSFAKG [Bad BH3 K24A, phage-displayed] the Fold/wt was 2 fold and the IC50 was 4 nM.
In the case of AEDIIRNIARHLAQVGDSMDRSIPPG [Bid BH3 Q1A, phage-displayed], the Fold/wt is reported as 2 fold and the IC50 is reported as 24 nM.
For QEAIIRNIARHLAQVGDSMDRSIPPG [Bid BH3 D3A, phage-displayed], the Fold/wt was 1 fold and the IC50 was 15 nM.
NLWAAQRYGRELRRMSDEFVDSFKKE [Bad BH3 G26E, phage-displayed] was tested, and the Fold/wt was 1 fold and the IC50 was 3 nM.
ALWAAQRYGRELRRMSDEFVDSFKKG [Bad BH3 N1A, phage-displayed] showed a Fold/wt of 1 fold and an IC50 of 2 nM.
NLWAAQRYGRELRRMSDEFVDSAKKG [Bad BH3 F23A, phage-displayed] gave a Fold/wt of 2 fold and an IC50 of 4 nM.
NLWAAQRYGRELRRMSDEAVDSFKKG [Bad BH3 F19A, phage-displayed] was tested, and the Fold/wt was 12 fold and the IC50 was 27 nM.
Binder NAWAAQRYGRELRRMSDEFVDSFKKG [Bad BH3 L2A, phage-displayed] has a Fold/wt of 2 fold and an IC50 of 4 nM.
With NLWAEQRYGRELRRMSDEFVDSFKKG [Bad BH3 A5E, phage-displayed] the Fold/wt was 5 fold and the IC50 was 12 nM.
For QADIIRNIARHLAQVGDSMDRSIPPG [Bid BH3 E2A, phage-displayed], the Fold/wt was 1 fold and the IC50 was 12 nM.
NLWAAQRYGRELRRMSAEFVDSFKKG [Bad BH3 D17A, phage-displayed] was tested, and the Fold/wt was 7 fold and the IC50 was 16 nM.
NLWAAQRYGRELARMSDEFVDSFKKG [Bad BH3 R13A, phage-displayed] showed a Fold/wt of 1 fold and an IC50 of 3 nM.

Each binder was assayed against mouse Mcl-1 with truncations of 151 amino acid residues at its N-terminus and 23 residues at its C-terminus (mouse) (UniProt P97287) (assay: competition phage ELISA).
mouse Mcl-1 with truncations of 151 amino acid residues at its N-terminus and 23 residues at its C-terminus (mouse), sequence (P97287 152-308): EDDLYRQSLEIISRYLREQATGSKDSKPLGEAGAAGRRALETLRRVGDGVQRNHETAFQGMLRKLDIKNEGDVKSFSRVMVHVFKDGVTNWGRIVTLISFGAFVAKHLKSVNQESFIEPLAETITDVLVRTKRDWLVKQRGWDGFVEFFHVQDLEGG
For QEDAIRNIARHLAQVGDSMDRSIPPG [Bid BH3 I4A, phage-displayed], the Fold/wt was 1 fold and the IC50 was 134 nM.
Work on QEDIARNIARHLAQVGDSMDRSIPPG [Bid BH3 I5A, phage-displayed] yielded a Fold/wt of 1 fold and an IC50 of 144 nM.
In the case of PSSTMGQVGRQLAIAGDDINRRYDSE [Bak BH3 I15A, phage-displayed], the Fold/wt is reported as 25 fold and the IC50 is reported as 517 nM.
In the case of PSSTMGQAGRQLAIIGDDINRRYDSE [Bak BH3 V8A, phage-displayed], the Fold/wt is reported as 4 fold and the IC50 is reported as 79 nM.
In the case of AEDIIRNIARHLAQVGDSMDRSIPPG [Bid BH3 Q1A, phage-displayed], the Fold/wt is reported as 1 fold and the IC50 is reported as 79 nM.
For {FLAG}-RAELPPEFAAQLRKIGDKVYCTWAAP-{GGGT-g3(249-406)} [mNoxaA BH3 S24A, phage-displayed], the Fold/wt was < 1 fold and the IC50 was 13 nM.
Binder QEAIIRNIARHLAQVGDSMDRSIPPG [Bid BH3 D3A, phage-displayed] has a Fold/wt of 1 fold and an IC50 of 96 nM.
In the case of PSSTMGQVGRQAAIIGDDINRRYDSE [Bak BH3 L12A, phage-displayed], the Fold/wt is reported as 20 fold and the IC50 is reported as 414 nM.
For {FLAG}-RAELPPEFAAQLRKIGDKVYCAWSAP-{GGGT-g3(249-406)} [mNoxaA BH3 T22A, phage-displayed], the Fold/wt was < 1 fold and the IC50 was 14 nM.
Binder RAELPPEFAAQLRKIGDKVYCTWSAP-{GGGT-g3(249-406)} (not fully specified (N-terminus)) [mNoxaA BH3 wild type, phage-displayed] has a Fold/wt of 1 fold and an IC50 of 39 nM.
RAELPPEFAAQLRKIGDKVYCTASAP-{GGGT-g3(249-406)} (not fully specified (N-terminus)) [mNoxaA BH3 W23A, phage-displayed] was tested, and the Fold/wt was 2 fold and the IC50 was 69 nM.
Work on PSSTMGQVGRQLAIIGDDANRRYDSE [Bak BH3 I19A, phage-displayed] yielded a Fold/wt of 9 fold and an IC50 of 185 nM.
{FLAG}-RAELPPEFAAQLRKIGDKVYCTWSEP-{GGGT-g3(249-406)} [mNoxaA BH3 A25E, phage-displayed] showed a Fold/wt of 1 fold and an IC50 of 33 nM.
For PSSTMGQVGRQLEIIGDDINRRYDSE [Bak BH3 A13E, phage-displayed], the Fold/wt was 17 fold and the IC50 was 356 nM.
QADIIRNIARHLAQVGDSMDRSIPPG [Bid BH3 E2A, phage-displayed] was tested, and the Fold/wt was 1 fold and the IC50 was 140 nM.
PSSTMGQVERQLAIIGDDINRRYDSE [Bak BH3 G9E, phage-displayed] was tested, and the Fold/wt was 21 fold and the IC50 was 438 nM.
